Assay results published in patent US20240084023A1 (NGM BIOPHARMACEUTICALS, published 2024).
Residue numbers refer to the chain shown, from its start.

Key:
[1] = biological target: T1, GCGR extracellular domain alanine mutant K98A (human, UniProt P47871 26-136, limits assumed); assay: flow cytometry on transfected 293XP cells
T1 construct: expressed in 293XP cells
T1 chain: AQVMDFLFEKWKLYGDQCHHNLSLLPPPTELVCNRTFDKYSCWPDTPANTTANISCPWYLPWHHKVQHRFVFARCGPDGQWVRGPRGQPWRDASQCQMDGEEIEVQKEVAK
Experimental: (§1) To assist in gathering information on the GCGR epitope that the 6B5 binning group bound to, “alanine scanning mutagenesis” was undertaken. These alanine scanning mutagenesis platform is a technique used for mapping both linear and conformational antigen epitopes by evaluating the effects of point mutations across a target protein. Single residues in a target protein are replaced by alanine one at a time to construct a mutant library. Each variant is assayed for its ability to bind to an antibody of interest. […] Amino acids across the extracellular domain of GCGR were mutated to alanine and the anti-GCGR antibody Hz6B5 was tested for binding to the alanine mutants.
(§2) The wild-type GCGR extracellular domain and the alanine mutants were each transfected into 293XP cells and incubated for 24 hours. Antibody Hz6B5 was incubated with the transfected cells for 30 minutes at 4° C. After washing with PBS/1% BSA/0.1% azide, the cells were incubated with a labeled anti-mouse Fc antibody (Jackson Immunoresearch) for 30 minutes at 4° C. After washing with PBS/1% BSA/0.1% azide, the cells were analyzed using a flow cytometer BD (FACSCalibur instrument) and cytometric analytical software (FlowJo). A serum sample from a mouse immunized with human GCGR was used as positive control to confirm expression of the alanine mutants.

[2] = biological target: T2, GCGR extracellular domain alanine mutant R116A (human, UniProt P47871 26-136, limits assumed); assay: flow cytometry on transfected 293XP cells
T2 construct: expressed in 293XP cells
T2 chain: T1 chain with A73K, R91A
Experimental: as §1, §2

B1: anti-GCGR antibody Hz6B5 (antibody, V domains shown)
VH: QVQLVQSGAEVKKPGSSVKVSCKASGFTFTNHWLGWVRQAPGQGLEWIGDIYPGGYYINYNEKFKGRVTITADESTSTAYMELSSLRSEDTAVYYCARHTNYGSDYWGQGTTVTVSS
VL: DVVMTQSPLSLPVTLGQPASISCRSSQSIVDSYGNTFLEWYQQRPGQSPRLLIYKVSNRLSGVPDRFSGSGSGTDFTLKISRVEAEDVGVYYCFQGSHVPWTFGQGTKLEIK
notes: Humanized 6B5
- % positive cells [1]: 82.5%
- % positive cells [2]: 85.9%
